Where two headings read alike, the source gives them in different places.
Legend:
[1] = tested on: T1SP10MN(A) (−Cys); conditions: for Vaginal lavage reciprocal anti-T1SP10MN(A) (−Cys) IgA endpoint titer / Vaginal lavage reciprocal anti-T1SP10MN(A) (−Cys) IgG endpoint titer: Experiment 2, pooled, n=5 Balb/c, 15 days after secondary immunization
Protocol: Animals were bled prior to initial immunization, and at indicated time points. Serum was analyzed from individual mice, or as pools from mice within groups. Vaginal lavage was performed on euthanized mice to assess antibody levels. This was accomplished by instillation of 75:1 RPMI-10 into the vaginal vault of female mice using a 200:1 pipette. The vault was washed by repeated delivery and removal of fluid, which was then added to 10:1 of FBS. Vaginal lavage were analyzed as pools.
For analysis of HIV peptide-specific antibody and subclass distribution, peptide was suspended in either carbonate buffer (15 mM Na2CO3, 35 mM NaHCO3, pH 9.6), or PBS, at a concentration of 1 μg/ml and plated to 96 well microtiter plates (Nunc) in a volume of 100:1. After overnight incubation at 37° C., plates were washed, and blocked (0.1% gelatin/PBS) at room temperature for 2-4 hours. ELISA plates were washed with wash buffer (PBS, 0.1% Tween™20) before addition of serially diluted serum (PBS, 0.1% gelatin, 0.05% Tween™20, 0.02% sodium azide). After a four hour incubation, wells were washed and appropriate dilutions of biotinylated anti-isotype/subclass antibodies were added for incubation at 4° C. overnight. Wells were washed and incubated with strepavidin-conjugated horseradish peroxidase. After incubation, wells were washed, and developed with ABTS. Wells were read at 405 nm. Titers were standardized using control sera.
Vaginal IgG and IgA anti-peptide antibody titers were measured from lavage obtained 2 weeks after final immunization. Groups of 5 Balb/c female mice were immunized with 25 μg T1SP10MN(A) (−Cys) and the indicated adjuvant formulations on days 0, 28, and 42. Vaginal antibody titers were determined from pool d lavage fluid.
HIV peptide-specific vaginal lavage endpoint reciprocal endpoint IgG and IgA antibody titers were measured from pooled serum (n=5 Balb/c) 15 days after secondary immunization. […] Aqueous MPL™ was delivered at 50 μg per dose. Recombinant murine IL-12 was delivered at 40 ng/mouse. Recombinant murine GM-CSF was delivered at 10 μg/mouse.
Vaginal IgG and IgA anti-peptide antibody titers were measured from lavage 41 days after initial immunization, 13 days after secondary immunization.

[2] = tested on: Neisseria gonorrhoeae Porin B protein; assay: Reciprocal anti-Porin B protein serum IgG endpoint subclass titers; assay type: in vivo, Swiss-Webster mice; conditions: Experiment 11; pooled serum n=5 Swiss-Webster; 1 μg Porin B s.c. week 0 and 4
Protocol: (§1) Outbred Swiss-Webster mice were divided into five groups of ten mice each. Each group received 1 μg of recombinant Porin B protein (from strain FA1090 with 16 amino acids at the amino-terminus from a phage, followed by the mature form of the Porin B protein). […] Mice were immunized subcutaneously in the rump with a total volume of 0.2 ml, divided equally into each of two sites at the base of the tail/rump. Immunizations were administered at week 0 and week 4.
Mice were bled the day prior to each immunization, and at 13 days after the final immunization. Serum was analyzed from pools from mice within groups. […] All day 0 pre-immunization titers were less than 50.
Individual week 6 IgG titer geometric means against the recombinant Porin B protein were also determined.
as §1, with “six” for “five”, “five” for “ten”, “ml.” for “ml, divided equally into each of two sites at the base of the tail/rump.”
(§2) Mice were bled the day prior to each immunization, and at 13 days after the final immunization. Serum was analyzed from pools from mice within groups. […] All day 0 pre-immunization titers were less than 50. The starting dilution for vaginal lavage analysis was 1/5.

[3] = tested on: RSV F protein; conditions: Experiment 14; pooled serum n=5 Balb/c; 3 μg F protein s.c. week 0 and 4
Sequence of RSV F protein (P03420 137-574): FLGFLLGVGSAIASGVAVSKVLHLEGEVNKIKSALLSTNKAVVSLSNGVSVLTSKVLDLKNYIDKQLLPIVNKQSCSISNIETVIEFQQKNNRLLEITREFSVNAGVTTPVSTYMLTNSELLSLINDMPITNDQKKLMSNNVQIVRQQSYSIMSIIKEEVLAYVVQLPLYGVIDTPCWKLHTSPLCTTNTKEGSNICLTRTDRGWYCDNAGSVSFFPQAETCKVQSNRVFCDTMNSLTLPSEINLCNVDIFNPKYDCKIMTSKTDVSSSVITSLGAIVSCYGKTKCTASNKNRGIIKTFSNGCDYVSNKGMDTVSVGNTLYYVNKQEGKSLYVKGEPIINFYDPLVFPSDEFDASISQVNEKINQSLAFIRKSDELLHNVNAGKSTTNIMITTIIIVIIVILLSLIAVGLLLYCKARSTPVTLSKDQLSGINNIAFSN

[4] = tested on: Neisseria gonorrhoeae Porin B protein; assay: Vaginal wash anti-Porin B protein IgG and IgA titers; assay type: in vivo, Swiss-Webster mice; conditions: Experiment 11; Swiss-Webster; starting dilution 1/5
Protocol: as §1, with “six” for “five”, “five” for “ten”, “ml.” for “ml, divided equally into each of two sites at the base of the tail/rump.”
as §2

[5] = Experiment 1, pooled lavage, 5 Balb/c, immunized days 0, 28, 42, 2 weeks after final immunization
[6] = Experiment 4, Balb/c, day 41, 13 days after secondary immunization

B1: GM-CSF: Recombinant murine granulocyte macrophage colony stimulating factor (protein, UniProt P01587 18-141, looked up)
Granulocyte-macrophage …: APTRSPITVTRPWKHVEAIKEALNLLDDMPVTLNEEVEVVSNEFSFKKLTCVQTRLKIFEQGLRGNFTKLKGALNMTASYYQTYCPPTPETDCETQVTTYADFIDSLKTFLTDIPFECKKPGQK
[1]; [5]
  Vaginal lavage IgA anti-T1SP10MN(A) (−Cys) antibody titer: <20
  Vaginal lavage IgG anti-T1SP10MN(A) (−Cys) antibody titer: <20
[1]
  Vaginal lavage reciprocal anti-T1SP10MN(A) (−Cys) IgA endpoint titer: <10
  Vaginal lavage reciprocal anti-T1SP10MN(A) (−Cys) IgG endpoint titer: 26
[1]; [6]
  Vaginal lavage IgA anti-T1SP10MN(A) (−Cys) antibody titer: <10
  Vaginal lavage IgG anti-T1SP10MN(A) (−Cys) antibody titer: <10

B2: rIL-12: Recombinantly expressed murine IL-12 (Genetics Institute) (protein, UniProt P43431 23-215; P43432 23-335, looked up)
Interleukin-12 subunit alpha: RVIPVSGPARCLSQSRNLLKTTDDMVKTAREKLKHYSCTAEDIDHEDITRDQTSTLKTCLPLELHKNESCLATRETSSTTRGSCLPPQKTSLMMTLCLGSIYEDLKMYQTEFQAINAALQNHNHQQIILDKGMLVAIDELMQSLNHNGETLRQKPPVGEADPYRVKMKLCILLHAFSTRVVTINRVMGYLSSA
Interleukin-12 subunit beta: MWELEKDVYVVEVDWTPDAPGETVNLTCDTPEEDDITWTSDQRHGVIGSGKTLTITVKEFLDAGQYTCHKGGETLSHSHLLLHKKENGIWSTEILKNFKNKTFLKCEAPNYSGRFTCSWLVQRNMDLKFNIKSSSSSPDSRAVTCGMASLSAEKVTLDQRDYEKYSVSCQEDVTCPTAEETLPIELALEARQQNKYENYSTSFFIRDIIKPDPPKNLQMKPLKNSQVEVSWEYPDSWSTPHSYFSLKFFVRIQRKKEKMKETEEGCNQKGAFLVEKTSTEVQCKGGNVCVQAQDRYYNSSCSKWACVPCRVRS
[2]
  Reciprocal anti-Porin B Protein IgG1 endpoint titer, Week 3: 2,578
  Reciprocal anti-Porin B Protein IgG1 endpoint titer, Week 6: 6,278
  Reciprocal anti-Porin B Protein IgG2a endpoint titer, Week 3: 2,071
  Reciprocal anti-Porin B Protein IgG2a endpoint titer, Week 6: 58,552
  Reciprocal anti-Porin B Protein IgG endpoint titer, Week 3: 7,266
  Reciprocal anti-Porin B Protein IgG endpoint titer, Week 6: 571,325
[3]
  Reciprocal anti-RSV F Protein IgG1 endpoint titer, Week 3: 3,442
  Reciprocal anti-RSV F Protein IgG1 endpoint titer, Week 6: 1,345,099
  Reciprocal anti-RSV F Protein IgG2a endpoint titer, Week 3: 500
  Reciprocal anti-RSV F Protein IgG2a endpoint titer, Week 6: 65,951
  Reciprocal anti-RSV F Protein IgG endpoint titer, Week 3: 13,557
  Reciprocal anti-RSV F Protein IgG endpoint titer, Week 6: 4,459,059
[1]; [5]
  Vaginal lavage IgA anti-T1SP10MN(A) (−Cys) antibody titer: <20
  Vaginal lavage IgG anti-T1SP10MN(A) (−Cys) antibody titer: <20
[1]
  Vaginal lavage reciprocal anti-T1SP10MN(A) (−Cys) IgA endpoint titer: <10
  Vaginal lavage reciprocal anti-T1SP10MN(A) (−Cys) IgG endpoint titer: <10
[1]; [6]
  Vaginal lavage IgA anti-T1SP10MN(A) (−Cys) antibody titer: <10
  Vaginal lavage IgG anti-T1SP10MN(A) (−Cys) antibody titer: <10
[4]
  Vaginal Wash IgA titer, anti-Porin B Protein: 5
  Vaginal Wash IgG titer, anti-Porin B Protein: 93

Source: US7611721B1, “Adjuvant combination formulations” (priority 2000, dated 2009)
